B1: H1M9528N: anti-MUC16 hybridoma antibody, mIgG1; HCVR/LCVR SEQ ID NOs: 234/242 (antibody, V domains shown)
VH: QMQLQESGPGLVKPSETLSLTCTVSGGSISSYYWNWIRQPPGKGLEWIGYIYYSGNNFNPSLKSRVTISVDTSKNQFSLKLSSVTAADTAVYYCARAFHWNYEFDYWGQGTLVTVSS
VL: EIVLTQSPGTLSLSPGERATLSCRASQSVSNNYLAWYQQKPGQAPRLLLYGASSRTTDIPDRFSGSGSGTDFTLTISRLEPEDFAVYYCQQYDNSPLTFGGGTKVEIR
B2: H1H8755P: anti-MUC16 antibody, human IgG1 Fc; HCVR/LCVR SEQ ID NOs: 2/10 (antibody, V domains shown)
VH: EVQLVESGGGLVQPGRSLRLSCAASGFTFNDYAMHWVRQSPGKGLEWVSGIDWNGGSIDYADSVKGRFTISRDTAKNSLYLQMNSLKVEDTALYYCAKDIGHWNYIGGMDVWGQGTTVTVSS
VL: DIQMTQSPSSLSASVGDRVTITCRASQSINIYLNWYQQKPGKAPKFLIYAASSLQTGVPSRFSGSGSGTDFTLTISSLEPEDFATYYCQHSYSTPPITFGQGTRLEIK
B3: H1H8808P: anti-MUC16 antibody, human IgG1 Fc; HCVR/LCVR SEQ ID NOs: 130/138 (antibody, V domains shown)
VH: QVQLVESGGGVVQPGRSLRLSCVASGFTFSNYGIHWVRQAPGKGLEWVAVISDDGSFKFYADSVKGRFTISRDNSKNTLYLQMNSLRVEDSAVYHCAKWQHNWNDGGFDYWGQGTLVTVSS
VL: EIVLTQSPDTLSLSPGERATLSCRASQSLSSNYLAWYRQKPGQAPRLLIYGISSRATGIPDRFSGSGSGTDFTLTISRLEPEDFAVYYCQQYGSSPWTFGQGTKVEIK
B4: H3M9529N: anti-MUC16 hybridoma antibody, mIgG3; HCVR/LCVR SEQ ID NOs: 378/386 (antibody, V domains shown)
VH: QVQLQQWGAGLLKPSETLSLTCAVYGGSFSGFYWSWIRQPPGKGLEWIGEINHSGSAKYNPSLKNRVIISIDTSKNQFSLKLDSVTAADTAVYNCARQGWNFAIFDYWGQGTLVDVSS
VL: DIVMTQSPDSLAVSLGGRATINCKSSQSVLHSSYNKDHLAWYQQRPGQPPKLLIYWASTRESGVPDRFSGSGSGTDFTLTISSLQAEDVAVYYCQQYNILPPTFGQGTRVEIK
B5: H2M7135N: anti-MUC16 hybridoma antibody, mIgG2; HCVR/LCVR SEQ ID NOs: 298/306 (antibody, V domains shown)
VH: EVQLVESGGGLVQAGGSLRLSCAASGFTFSYHEMNWVRQAPGKGLEWVSYIGSRGTTKHYADPVKGRFTISRDNAKNSLYLQMNSLRAEDTAVYYCASEVGSILGYSMDVWGQGTTVTVSS
VL: DIQMTQSPSSLSASVGDRVTITCRASQSVSRYLNWCQQKPGKAPKLLTYAASSLQSGVPSRFSGSGSGTDFTLTISSLQPEDFAAYFCQQSYSTPPITFGQGTRLEIK
B6: H1H8783P: anti-MUC16 antibody, human IgG1 Fc; HCVR/LCVR SEQ ID NOs: 50/58 (antibody, V domains shown)
VH: QVQLVESGGGVVQPGRSLRLSCAASGFTFSDHAMHWVRQAPGKGLEWVAVISYHGTDKQYGDSVKGRFTISRDNSKNALYLQMNSLRPEDTAMYYCAKDGYDFWNAYSLFDYWGQGTLVTVSS
VL: DIQMTQSPSSLSASVGDRVTITCRASQSISNYLNWYQQKPGKAPKLLIYTASSLLSGVPSRFSGSGSGTDFTLTISSLQPEDFATYYCQQSYSTPPITFGQGTRLEIK
B7: H1H8770P: anti-MUC16 antibody, human IgG1 Fc; HCVR/LCVR SEQ ID NOs: 34/42 (antibody, V domains shown)
VH: QVQLVESGGGVVQPGRSLRLSCAASGFTFSDHGMHWVRQAPGKGLEWVAVISYHGSNKHYADSVKGRFTISRDNSKNALYLQMNSLRPEDTAMYYCAKDGYDFWNGYSLFDYWGQGTLVTVSS
VL: DIQMTQSPSSLSASVGDRVTITCRASQSISNYLNWYQQKPGKAPKLLIYTASNLLSGVPSRFSGSGSGTDFTLTISSLQPEDFATYYCQQSYSTPPITFGQGTKLEIK

Legend:
[1] = molecular target: T1, hMUC16 endogenously expressed on OVCAR-3 cell line (Homo sapiens, UniProt Q8WXI7); assay: Electrochemiluminescence (MSD) cell binding, OVCAR-3 vs SK-OV-3; conditions: cell-based binding assay
T1 construct: OVCAR-3 cells endogenously express MUC-16; endogenous in cells; host or cells: OVCAR-3 (also luciferase-transduced OVCAR3-Luc)
Description: The ability of anti-MUC16 antibodies to bind specifically to endogenously expressing MUC16 on the human ovarian carcinoma cell line (OVCAR-3) was evaluated via an electrochemiluminescence based detection assay (Meso Scale Discovery (MSD), Rockville, Md.). […] Detached cells were then washed once in 1×PBS supplemented with Ca^2+/Mg^2+ and counted (Cellometer Auto T4 cell counter, Nexcelom Bioscience, Lawrence, Mass.). Approximately 1.0×10^4 cells were plated in MULTI-ARRAY 96-well carbon electrode plates (MSD) and incubated for 1 h at 37° C. […] Next, serial dilutions of anti-MUC16 or control antibodies (0.85 pM-50 nM) and no-antibody buffer controls were added to the plate-bound cells and incubated for 1 h at room temperature (RT). […] Plate-bound antibodies were detected with a SULFO-TAG™-conjugated anti-human kappa light chain antibody (Regeneron) or a SULFO-TAG™-conjugated anti-mouse IgG antibody (Jackson Immunoresearch, West Grove, Pa.) for 1 h at RT. Post-wash, plates were developed with Read Buffer (MSD) according to manufacturer's protocol and luminescent signals were recorded with a SECTOR Imager 6000 (MSD) instrument.
Luminescence intensity, measured in relative light units (RLU), for the two cell lines was recorded to indicate the binding intensity of each antibody.

[2] = molecular target: T2, soluble monomeric human MUC16 (hMUC16.mmh, last five SEA domains, SEQ ID: 1902) (Homo sapiens, UniProt Q8WXI7); assay: Surface plasmon resonance (BIACORE) binding to hMUC16 fragment at 25° C.; design: key to ka / kd / KD / t 1/2: NB: No binding; conditions: for KD / ka / kd / t 1/2: 25° C.; for binding to soluble truncated human MUC16 protein via surface plasmon resonance (in words): truncated format encompassing the last five SEA domains
T2 construct: mmh (myc-myc-hexahistidine)
Description: Antibodies were captured onto a CM4 or CM5 BIACORE sensor surface (GE Healthcare Life Sciences) derivatized via amine coupling with a monoclonal anti-human Fc antibody (GE, # BR-1008-39) or a monoclonal goat anti-mouse Fc antibody (GE, # BR-1008-38). Various concentrations of soluble monomeric human MUC16, in a truncated format encompassing the last five SEA domains of Mucin-16 (hMUC16.mmh, or MUC16 “nub”, SEQ ID: 1902) were injected over the anti-MUC16-antibody captured surface at a flow rate of 50 uL/minute (BIACORE T 200) or 30 uL/minute (BIACORE 4000). Antibody-reagent association was monitored for 4 min and the dissociation was monitored for 6-10 min. All binding studies were performed in HBS-ET buffer (0.01M HEPES pH 7.4, 0.15M NaCl, 0.05% v/v Surfactant P20).
Kinetic association (ka) and dissociation (kd) rate constants were determined by fitting the real-time sensorgrams to a 1:1 binding model using Scrubber 2.0c curve fitting software. Binding dissociation equilibrium constants (KD) and dissociative half-lives (t½) were calculated from the kinetic rate constants as: […]

[3] = Hybridoma anti-MUC16 antibodies (H1M, H2M, H3M), Table 5A
[4] = Human Fc anti-MUC16 antibodies (H1H), Table 5B

T2 sequence (Q8WXI7 with tags, fused parts or gaps): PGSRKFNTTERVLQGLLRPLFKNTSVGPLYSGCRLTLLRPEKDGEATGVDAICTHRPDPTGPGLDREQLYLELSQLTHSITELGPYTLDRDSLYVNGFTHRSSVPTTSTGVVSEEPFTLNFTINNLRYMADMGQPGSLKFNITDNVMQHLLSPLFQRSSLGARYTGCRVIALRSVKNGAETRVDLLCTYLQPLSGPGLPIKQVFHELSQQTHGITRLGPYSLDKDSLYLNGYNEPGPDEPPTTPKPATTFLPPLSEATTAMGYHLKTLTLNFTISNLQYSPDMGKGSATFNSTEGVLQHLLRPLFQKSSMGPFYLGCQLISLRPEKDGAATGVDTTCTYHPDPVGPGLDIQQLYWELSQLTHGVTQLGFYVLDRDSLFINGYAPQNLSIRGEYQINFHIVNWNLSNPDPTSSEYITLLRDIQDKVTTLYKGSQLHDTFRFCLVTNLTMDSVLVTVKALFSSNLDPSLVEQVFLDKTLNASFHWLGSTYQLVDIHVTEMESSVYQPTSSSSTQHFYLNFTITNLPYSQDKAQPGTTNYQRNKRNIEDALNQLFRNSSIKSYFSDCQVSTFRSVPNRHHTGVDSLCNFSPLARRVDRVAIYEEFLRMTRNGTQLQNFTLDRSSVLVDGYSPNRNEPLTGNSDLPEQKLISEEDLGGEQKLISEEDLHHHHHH

Molecule | specific binding to endogenous human MUC16 expressed on OVCAR-3 cells (in words) [1] | KD [2, 3] | ka [2, 3] | kd [2, 3] | t 1/2 [2, 3] | binding to soluble truncated human MUC16 protein via surface plasmon resonance (in words) [2] | ka [2, 4] | kd [2, 4]
B1 | specific binding | NB | NB | NB | NB | no binding | – | –
B2 | – | – | – | – | – | – | 522000 M⁻¹ s⁻¹ | 0.000149 s⁻¹
B3 | – | – | – | – | – | – | 4120 M⁻¹ s⁻¹ | 0.000216 s⁻¹
B4 | specific binding | NB | NB | NB | NB | no binding | – | –
B5 | – | – | 51000 M⁻¹ s⁻¹ | 0.000218 s⁻¹ | – | – | – | –
B6 | – | – | – | – | – | – | 174000 M⁻¹ s⁻¹ | 0.000107 s⁻¹
B7 | – | – | – | – | – | – | 247000 M⁻¹ s⁻¹ | 0.000308 s⁻¹

Source: patent US10941208B2, “Anti-MUC16 antibodies” (Regeneron Pharmaceuticals, Inc., priority 2016, dated 2021)
